Tests used:
HsDOR = settings: previously tested in yeast (Uddin et al. 2016); cited from earlier work
KOR = target: T1, KOR (Homo sapiens, UniProt P41145); experiment: tethered peptide library sorting on GFP fluorescence with NGS; type: cell-based; settings: metric: positive count
T1 construct: Gpa1 with human Gi3 C-terminal five residues; tethered peptide display
Text: (§1) The first, henceforth referred to as library 1, site saturated the first four positions of the peptide, YGGF, using an NNK mutagenesis strategy (FIG. 5). This is canonically the “message” region, understood to be integral to opioid receptor signaling, with the tyrosine being particularly important. […] In creating this library, it was hoped that it could be determined how much variation is tolerated in this region, and how this might differ for opioid receptor sub-type.
(§2) The second library, library 2, saturated the latter four residues of the peptide, LRRI (FIG. 5). This “address” region is thought to confer receptor specificity, interacting with receptor residues further up the binding pocket (Metzger et al. 2001; Xue et al. 1994; Marie-Pepin et al. 1997), but can still be important for receptor activity. It was hypothesized that more variation would be tolerated in this region, including more sub-type specific variation.
(§3) Libraries were sorted twice on GFP fluorescence. Roughly 15 times the theoretical nucleotide complexity was sorted to ensure rare variants were assayed. […] After the second sorts, the genomes of the positive and negative populations were prepped and the library cassettes were sequenced in technical replicate using NGS at a depth of at least 1 million reads.
(§4) Several strategies were used to both identify unique binders for receptor sub-type and identify generally preferred residues and motifs. Log proportions between the positive and negative pools were determined with a filter of-11 (FIG. 6). […] Because the libraries were sorted twice, and the fraction of cells with a GFP signal small, strong signalers were expected to be present in relatively high numbers in the positive pool.
(§5) To incorporate both metrics, log proportions after a cut off of 500 nucleotide read counts were also determined (FIGS. 7 and 8).
(§6) Beyond identification of general motif trends, variants unique to individual receptors were determined. For a general idea of variant specificity, plots showing receptor specificity by the log proportion metric were generated (FIGS. 12 and 13). […] Logo plots of receptor-unique variants by this metric are highlighted in FIGS. 14 and 15. To account for the noise around potentially low count variants, log proportions between positive and negative pools were determined after filtering on a minimum variant read count of 500 in the positive and negative pools. Variants that were receptor unique by this metric are highlighted in the logo plots in FIGS. 16 and 17.
(§7) Peptide candidates for further analysis were determined by manually curating the three discussed methods (Table 1).
(§8) For cell sorting experiments, post-transformation outgrowths were grown overnight in SD-URA/His pH 5.8 media, and cultures were passaged the following day 1:25 to minimize dead and untransformed cells. The following day the saturated cultures were washed three times in SD-URA/His pH 7.1 100 mM MOPS media without a carbon source to minimize glucose carry-over. Cultures were then diluted 1:10 their initial volume in SD-URA/His pH. 7.1 100 mM MOPS 2% galactose 0.2% glucose media and grown for 24 hours. Cells were then resuspended in an equal volume of TE pH 8.0 and 14-15 million events were sorted using a SH800S Cell Sorter (Sony) on GFP fluorescence, gated for singlets. Cells were sorted into SD-His/URA pH 5.8 media with pen/strep and grown for two days post sorting. Cultures were again washed and induced with galactose and sorted via the same parameters into positive and negative pools and grown up for 2 days. Genome extractions were performed using a Zymo Yeast Star kit.

MOR = target: T2, MOR (Homo sapiens, UniProt P35372); experiment: as above; type: cell-based; settings: metric: positive count
T2 construct: Gpa1/Gi3 chimeric G alpha; exogenous or tethered peptides
Text: as §1, §2, §3, §4, §5, §6, §7, §8

human opioid receptors = experiment: tethered peptide orientations and controls, GFP reporter signaling in yeast; type: cell-based; settings: pGal1, integrated; FIG. 20 (cholesterol-producing strain CJM263)
Protocol: Due to the limited application and efficacy of activating human GPCRs via this strategy, several tethering orientations for the dynorphin peptides were attempted. Anchoring with Flo42 at both the N- and C-termini of the peptides was tried. Additionally, versions with and without a glycine-serine linker between the peptide and the Flo42 region were assayed (versions with linker, FIG. 19). To enable rapid screening, the tethered peptide cassette was expressed on a plasmid under the control of a constitutive promoter.
This optimized tethering orientation was then assayed in the context to be used for library peptide display. Expression was driven by a galactose-inducible promoter, pGal1, and the construct was integrated into the yeast genome. The inducible promoter was used to control the length of peptide expression and minimize potential for unwanted selection from long-term constitutive expression. Like the tethered peptide cassette, receptors were integrated into the genome to avoid downstream issues with variable plasmid copy number and sorting (Bean et al. 2022). […] It was decided to screen MOR with the peptide libraries to determine if there were any variations that could rescue function, with the hypothesis that the sequence space assayed would likely contain variants capable of activating the receptor. […]

DOR [1] = target: T3, DOR (Homo sapiens, UniProt P41143); experiment: tethered peptide library sorting on GFP fluorescence with NGS; type: cell-based; settings: metric: positive count
T3 construct: Gpa1 with human Gi3 C-terminal five residues; tethered peptide display
Text: as §1, §2, §3, §4, §5, §6, §7, §8

DOR [2] = target: T3, DOR; experiment: tethered peptide agonist display, GFP reporter signaling in yeast; type: cell-based; settings: individually cloned tethered isolates (FIG. 27)
Protocol: Anchoring with Flo42 at both the N- and C-termini of the peptides was tried. Additionally, versions with and without a glycine-serine linker between the peptide and the Flo42 region were assayed (versions with linker, FIG. 19). To enable rapid screening, the tethered peptide cassette was expressed on a plasmid under the control of a constitutive promoter.
Expression was driven by a galactose-inducible promoter, pGal1, and the construct was integrated into the yeast genome. The inducible promoter was used to control the length of peptide expression and minimize potential for unwanted selection from long-term constitutive expression. Like the tethered peptide cassette, receptors were integrated into the genome to avoid downstream issues with variable plasmid copy number and sorting (Bean et al. 2022).
Plasmids were constructed using Golden Gate assembly of components from the Yeast Toolkit with some adaptations. Receptors were expressed on either 2μ URA3 backbones driven by the CCW12 promoter or integrated into the yeast genome using a URA3 auxotrophic marker and driven by the TDH3 promoter. Tethered peptide cassettes were expressed on either a Cen6 HIS3 backbone or integrated into the yeast genome using HIS3 auxotrophic markers and were driven by pHHF2 for plasmid-based expression, and pGal1 for integrated expression. Oligos were ordered as gblocks or single stranded DNA from IDT.

T2 sequence (P35372 whole entry): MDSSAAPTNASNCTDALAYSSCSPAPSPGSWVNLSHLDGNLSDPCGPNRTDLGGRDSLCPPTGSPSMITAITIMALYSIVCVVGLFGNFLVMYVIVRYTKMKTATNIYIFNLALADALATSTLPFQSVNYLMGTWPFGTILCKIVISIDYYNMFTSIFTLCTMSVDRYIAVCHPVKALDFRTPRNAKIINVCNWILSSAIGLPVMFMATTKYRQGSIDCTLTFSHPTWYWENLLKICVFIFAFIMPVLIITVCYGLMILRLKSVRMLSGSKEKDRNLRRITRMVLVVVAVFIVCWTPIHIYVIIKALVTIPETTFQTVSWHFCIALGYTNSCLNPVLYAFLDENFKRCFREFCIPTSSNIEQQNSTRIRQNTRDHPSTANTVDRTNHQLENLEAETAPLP
T1 sequence (P41145 whole entry): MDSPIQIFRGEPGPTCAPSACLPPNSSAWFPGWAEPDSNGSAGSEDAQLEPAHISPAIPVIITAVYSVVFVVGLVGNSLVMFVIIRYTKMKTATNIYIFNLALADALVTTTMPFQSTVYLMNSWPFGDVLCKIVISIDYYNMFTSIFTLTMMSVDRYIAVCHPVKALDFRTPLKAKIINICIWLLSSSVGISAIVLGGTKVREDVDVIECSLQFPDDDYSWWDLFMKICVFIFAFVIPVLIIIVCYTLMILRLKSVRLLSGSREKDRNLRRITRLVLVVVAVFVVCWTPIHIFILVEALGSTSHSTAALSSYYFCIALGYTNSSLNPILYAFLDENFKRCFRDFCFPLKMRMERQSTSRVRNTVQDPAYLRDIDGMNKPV
T3 sequence (P41143 whole entry): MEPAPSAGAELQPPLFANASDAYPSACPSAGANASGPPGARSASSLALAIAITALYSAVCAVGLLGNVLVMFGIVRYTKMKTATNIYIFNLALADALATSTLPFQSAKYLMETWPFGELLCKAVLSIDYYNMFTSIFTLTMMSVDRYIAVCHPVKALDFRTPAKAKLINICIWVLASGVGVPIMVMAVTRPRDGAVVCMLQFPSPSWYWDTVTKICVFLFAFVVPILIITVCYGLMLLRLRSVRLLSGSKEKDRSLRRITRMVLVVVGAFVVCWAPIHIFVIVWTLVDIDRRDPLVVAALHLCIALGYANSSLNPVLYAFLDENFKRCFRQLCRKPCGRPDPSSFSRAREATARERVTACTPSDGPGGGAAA

dynorphin A 1-17
activity (HsDOR): showed activity

YGGFYSYA
top-performing motif unique for receptor (KOR; library 2): KOR

YGGFMNYP
top-performing motif unique for receptor (MOR; library 2): MOR

GGGSGGGGSGGGSGGGGS [glycine-serine linker, glycine-serine linker, without peptide agonist, negative control]
activity of negative controls (human opioid receptors): no activity

YGGFGSGR
top-performing motif unique for receptor (DOR [1]; library 2): DOR

SHYVLRRI
top-performing motif unique for receptor (KOR; library 1): KOR

CDIQLRRI
top-performing motif unique for receptor (KOR; library 1): KOR

WWPDLRRI
top-performing motif unique for receptor (DOR [1]; library 1): DOR

YGFDLLRI
receptor specificity of individually cloned isolates (DOR [2]): delta-specific
signaling of individually cloned isolates (DOR [2]): signaled strongly

YGGFSSRG
top-performing motif unique for receptor (DOR [1]; library 2): DOR

LVLLLRRI
top-performing motif unique for receptor (MOR; library 1): MOR

YGFDLRRI
top-performing motif unique for receptor (DOR [1]; library 1): DOR

YGGFGGSG
top-performing motif unique for receptor (DOR [1]; library 2): DOR

YGMELRRI
top-performing motif unique for receptor (DOR [1]; library 1): DOR
receptor specificity of individually cloned isolates (DOR [2]): delta-specific
signaling of individually cloned isolates (DOR [2]): signaled strongly

YGGFYSRW
top-performing motif unique for receptor (KOR; library 2): KOR

YGGFMVAT
top-performing motif unique for receptor (MOR; library 2): MOR

YGGFSSGL
top-performing motif unique for receptor (DOR [1]; library 2): DOR

YGGFSSSG
top-performing motif unique for receptor (DOR [1]; library 2): DOR

YGGFRCCA
top-performing motif unique for receptor (MOR; library 2): MOR

YGGFMGSV
top-performing motif unique for receptor (MOR; library 2): MOR

GLVNLRRI
top-performing motif unique for receptor (MOR; library 1): MOR

YGGFYRLR
top-performing motif unique for receptor (KOR; library 2): KOR

SAWPLRRI
top-performing motif unique for receptor (KOR; library 1): KOR

YQRFLRRI
top-performing motif unique for receptor (KOR; library 1): KOR

SVPFLRRI
top-performing motif unique for receptor (KOR; library 1): KOR
